Laboratory results as given in FireProtDB (doi:10.1021/bi049405c).
Where “and” joins values, the source holds several entries; their conditions need not be identical. Identical values can stand only once.

Settings: Escherichia coli (strain K12); pH 7.6; 25 °C; GdnHCl; CD; HEPES 10 mM; KCl 100 mM; transition: 3; reversible: yes; whole UniProt chain shown

B1: Nickel-responsive regulator wild type, P0A6Z6 (protein)
chain: MQRVTITLDDDLLETLDSLSQRRGYNNRSEAIRDILRSALAQEATQQHGTQGFAVLSYVYEHEKRDLASRIVSTQHHHHDLSVATLHVHINHDDCLEIAVLKGDMGDVQHFADDVIAQRGVRHGHLQCLPKED
Q: With B1 as the protein, how does the “denaturant midpoint (higher = more stable)” value read?
A: 1.2 M and 2.8 M
